Data from PMC10955726, “DNA‐dependent phase separation by human SSB2 (NABP1/OBFC2A) protein points to adaptations to eukaryotic genome repair processes”.

Columns and labels:
[1] = molecular target: T1, hSSB2 (C-terminally His-tagged) (Homo sapiens, UniProt Q96AH0 1-204); test: fluorescence anisotropy; no MgCl2; Hill n 3.3; Anisotropy: standard LLPS buffer without MgCl2 (50 mM KCl standard), 25 C, 10 nM probe; EMSA: standard LLPS buffer (50 mM KCl, 10 mM MgCl2), 50 nM probe, 1% agarose; buffer species and pH not in the material; conditions: protein: recombinant; tags: C-terminal His; label: 3'-fluorescein; single strand
[2] = molecular target: T1, hSSB2 (C-terminally His-tagged); test: fluorescence anisotropy; no MgCl2; Hill n 1.1; Anisotropy: standard LLPS buffer without MgCl2 (50 mM KCl standard), 25 C, 10 nM probe; EMSA: standard LLPS buffer (50 mM KCl, 10 mM MgCl2), 50 nM probe, 1% agarose; buffer species and pH not in the material; conditions: protein: recombinant; tags: C-terminal His; label: 3'-fluorescein; single strand
hSSB2-dIDR = hSSB2-dIDR (Homo sapiens, UniProt Q96AH0 1-100); test: fluorescence anisotropy; no MgCl2; Hill n 2.4; Anisotropy: standard LLPS buffer without MgCl2 (50 mM KCl standard), 25 C, 10 nM probe; EMSA: standard LLPS buffer (50 mM KCl, 10 mM MgCl2), 50 nM probe, 1% agarose; buffer species and pH not in the material; conditions: protein: recombinant; tags: His (terminus not clearly stated); label: 3'-fluorescein; single strand
[3] = molecular target: T1, hSSB2 (C-terminally His-tagged); test: fluorescence anisotropy; no MgCl2; Hill n 2.7; Anisotropy: standard LLPS buffer without MgCl2 (50 mM KCl standard), 25 C, 10 nM probe; EMSA: standard LLPS buffer (50 mM KCl, 10 mM MgCl2), 50 nM probe, 1% agarose; buffer species and pH not in the material; conditions: protein: recombinant; tags: C-terminal His; label: 3'-fluorescein; single strand

T1 sequence (Q96AH0 whole entry): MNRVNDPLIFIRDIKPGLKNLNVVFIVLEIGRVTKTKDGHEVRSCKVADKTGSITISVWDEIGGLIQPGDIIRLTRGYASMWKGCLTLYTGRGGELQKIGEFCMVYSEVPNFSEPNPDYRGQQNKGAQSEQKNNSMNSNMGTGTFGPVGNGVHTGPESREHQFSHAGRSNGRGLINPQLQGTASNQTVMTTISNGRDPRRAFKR
Sequence of hSSB2-dIDR (Q96AH0 1-100): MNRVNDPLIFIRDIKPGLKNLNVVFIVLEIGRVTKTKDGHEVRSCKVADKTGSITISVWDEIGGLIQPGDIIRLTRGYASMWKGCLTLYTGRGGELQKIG

B1: ss36 RNA (ssRNA)
RNA: AUUUUUGCGGAUGGCUUAGAGCUUAAUUGCGCAACG
Kd [1]: 870 ± 170 nM

B2: ss54 DNA (ssDNA)
DNA: TCCTTTTGATAAGAGGTCATTTTTGCGGATGGCTTAGAGCTTAATTGCGCAACG
Kd [2]: 87 ± 7 nM
Kd (hSSB2-dIDR): 850 ± 20 nM

B3: ss36 DNA (ssDNA)
DNA: ATTTTTGCGGATGGCTTAGAGCTTAATTGCGCAACG
Kd [3]: 530 ± 20 nM
